The assay concerns the target TolB construct MV37 (TolB Δ1–22) (E. coli) (UniProt P0A855). Briefly: SPR.

The term Kd denotes the equilibrium constant for the complex coming apart.

The substance “TolAIII construct YZ74 (TolAIII Y352H,V407E) (domain or fragment)” returned a Kd of 23.6 µM. The substance “TolAIII construct YZ48 (wild-type TolAIII) (domain or fragment)” yielded a Kd of 4.1 µM.

The values above are taken from PMC2707214.
